Results: article PMC3394733, “Involvement of the Penta-EF-Hand Protein Pef1p in the Ca^2+-Dependent Regulation of COPII Subunit Assembly in Saccharomyces cerevisiae” (PLoS ONE, 2012)
Residue numbers refer to the chain shown, from its start.

B1: GST-Pef1p (natural protein, S. cerevisiae, UniProt P53238 1-335, looked up)
chain: MCAKKLKYAAGDDFVRYATPKEAMEETRREFEKEKQRQQQIKVTQAQTPNTRVHSAPIPLQTQYNKNRAENGHHSYGSPQSYSPRHTKTPVDPRYNVIAQKPAGRPIPPAPTHYNNLNTSAQRIASSPPPLIHNQAVPAQLLKKVAPASFDSREDVRDMQVATQLFHNHDVKGKNRLTAEELQNLLQNDDNSHFCISSVDALINLFGASRFGTVNQAEFIALYKRVKSWRKVYVDNDINGSLTISVSEFHNSLQELGYLIPFEVSEKTFDQYAEFINRNGTGKELKFDKFVEALVWLMRLTKLFRKFDTNQEGIATIQYKDFIDATLYLGRFLPH
notes: No removal of GST is described; also called N-terminally GST-fused Pef1p; pMY3; source: E. coli JM109, purified (glutathione-Sepharose, eluted with 10 mM glutathione); not shown: GST, N-terminal, kept
B2: GST-Pef1p-E180/181/248A (natural protein, S. cerevisiae, UniProt P53238 1-335, looked up)
chain: B1 chain with E180A, E181A, E248A
notes: also called pMY14; source: E. coli JM109, purified (glutathione-Sepharose, eluted with 10 mM glutathione); not shown: GST, N-terminal, kept
B3: MBP-Sec31(879–1114) (domain or fragment, S. cerevisiae, UniProt P38968 879-1114, looked up)
chain: APIQPGMPIMGDYNAQSSSIPSQPPINAVSGQTPHLNRKANDGWNDLPLKVKEKPSRAKAVSVAPPNILSTPTPLNGIPANAASTMPPPPLSRAPSSVSMVSPPPLHKNSRVPSLVATSESPRASISNPYAPPQSSQQFPIGTISTANQTSNTAQVASSNPYAPPPQQRVATPLSGGVPPAPLPKASNPYAPTATTQPNGSSYPPTGPYTNNHTMTSPPPVFNKPPTGPPPISMKK
notes: also called proline-rich region of Sec31p; pMY12; source: E. coli C41(DE3), purified (amylose resin, eluted with 30 mM maltose)
B4: Sec13/31p complex (complex, S. cerevisiae)
chain 1: MVVIANAHNELIHDAVLDYYGKRLATCSSDKTIKIFEVEGETHKLIDTLTGHEGPVWRVDWAHPKFGTILASCSYDGKVLIWKEENGRWSQIAVHAVHSASVNSVQWAPHEYGPLLLVASSDGKVSVVEFKENGTTSPIIIDAHAIGVNSASWAPATIEEDGEHNGTKESRKFVTGGADNLVKIWKYNSDAQTYVLESTLEGHSDWVRDVAWSPTVLLRSYLASVSQDRTCIIWTQDNEQGPWKKTLLKEEKFPDVLWRASWSLSGNVLALSGGDNKVTLWKENLEGKWEPAGEVHQ
chain 2: MVKLAEFSRTATFAWSHDKIPLLVSGTVSGTVDANFSTDSSLELWSLLAADSEKPIASLQVDSKFNDLDWSHNNKIIAGALDNGSLELYSTNEANNAINSMARFSNHSSSVKTVKFNAKQDNVLASGGNNGEIFIWDMNKCTESPSNYTPLTPGQSMSSVDEVISLAWNQSLAHVFASAGSSNFASIWDLKAKKEVIHLSYTSPNSGIKQQLSVVEWHPKNSTRVATATGSDNDPSILIWDLRNANTPLQTLNQGHQKGILSLDWCHQDEHLLLSSGRDNTVLLWNPESAEQLSQFPARGNWCFKTKFAPEAPDLFACASFDNKIEVQTLQNLTNTLDEQETETKQQESETDFWNNVSREESKEKPTVFHLQAPTWYGEPSPAAHWAFGGKLVQITPDGKGVSITNPKISGLESNTTLSEALKTKDFKPLINQRLVKVIDDVNEEDWNLLEKLSMDGTEEFLKEALAFDNDESDAQDDANNEKEDDGEEFFQQIETNFQPEGDFSLSGNIEQTISKNLVSGNIKSAVKNSLENDLLMEAMVIALDSNNERLKESVKNAYFAKYGSKSSLSRILYSISKREVDDLVENLDVSQWKFISKAIQNLYPNDIAQRNEMLIKLGDRLKENGHRQDSLTLYLAAGSLDKVASIWLSEFPDLEDKLKKDNKTIYEAHSECLTEFIERFTVFSNFINGSSTINNEQLIAKFLEFINLTTSTGNFELATEFLNSLPSDNEEVKTEKARVLIASGKSLPAQNPATATTSKAKYTNAKTNKNVPVLPTPGMPSTTSIPSMQAPFYGMTPGASANALPPKPYVPATTTSAPVHTEGKYAPPSQPSMASPFVNKTNSSTRLNSFAPPPNPYATATVPATNVSTTSIPQNTFAPIQPGMPIMGDYNAQSSSIPSQPPINAVSGQTPHLNRKANDGWNDLPLKVKEKPSRAKAVSVAPPNILSTPTPLNGIPANAASTMPPPPLSRAPSSVSMVSPPPLHKNSRVPSLVATSESPRASISNPYAPPQSSQQFPIGTISTANQTSNTAQVASSNPYAPPPQQRVATPLSGGVPPAPLPKASNPYAPTATTQPNGSSYPPTGPYTNNHTMTSPPPVFNKPPTGPPPISMKKRSNKLASIEQNPSQGATYPPTLSSSASPLQPSQPPTLASQVNTSAENVSHEIPADQQPIVDFLKEELARVTPLTPKEYSKQLKDCDKRLKILFYHLEKQDLLTQPTIDCLHDLVALMKEKKYKEAMVIHANIATNHAQEGGNWLTGVKRLIGIAEATLN
notes: Sec13p, COPII outer coat subunit, S. cerevisiae; Sec31p, COPII outer coat subunit, S. cerevisiae; also called outer COPII coat; source: purified

Assays:
Details in all cases: both partners purified
Sec13/31p complex = biological target: B4; assay: pull-down; GST fusion or GST (40 nM) and Sec13/31p (80 nM) with 5 mM EGTA, glutathione-Sepharose beads, 4°C 2 h, 20 mM HEPES-KOH pH 8.0, 160 mM potassium acetate, 0.1% Triton X-100; immunoblot with anti-Sec31p
GST-Pef1p = biological target: B1; assay: pull-down; GST-Pef1p or GST (40 nM) and MBP-Sec31p fragment (80 nM), glutathione-Sepharose beads, 4°C 2 h, 20 mM HEPES-KOH pH 8.0, 160 mM potassium acetate, 0.1% Triton X-100; CaCl2 or EGTA not told for this experiment; immunoblot with anti-MBP
Sec23/24p complex = biological target: T1, Sec23/24p complex (S. cerevisiae, UniProt P15303 1-768; P40482 1-926); assay: light scattering of liposomes; liposomes (100 µg/mL) preloaded with Sar1p (950 nM) and GMP-PNP (0.1 mM); Sec23/24p (160 nM), then Sec13/31p (260 nM) added; 350 nm, 25°C, 20 mM HEPES-KOH pH 6.8, 160 mM potassium acetate, 1 mM MgCl2; 5 mM EGTA in panel A, none in panel B; with or without GST-Pef1p or its mutant (520 nM)
T1 construct: Sec23p, COPII inner coat subunit, GAP for Sar1p, S. cerevisiae; Sec24p, COPII inner coat subunit, S. cerevisiae; also called inner COPII coat
T1 sequence (P15303 whole entry, chain 1 of 2): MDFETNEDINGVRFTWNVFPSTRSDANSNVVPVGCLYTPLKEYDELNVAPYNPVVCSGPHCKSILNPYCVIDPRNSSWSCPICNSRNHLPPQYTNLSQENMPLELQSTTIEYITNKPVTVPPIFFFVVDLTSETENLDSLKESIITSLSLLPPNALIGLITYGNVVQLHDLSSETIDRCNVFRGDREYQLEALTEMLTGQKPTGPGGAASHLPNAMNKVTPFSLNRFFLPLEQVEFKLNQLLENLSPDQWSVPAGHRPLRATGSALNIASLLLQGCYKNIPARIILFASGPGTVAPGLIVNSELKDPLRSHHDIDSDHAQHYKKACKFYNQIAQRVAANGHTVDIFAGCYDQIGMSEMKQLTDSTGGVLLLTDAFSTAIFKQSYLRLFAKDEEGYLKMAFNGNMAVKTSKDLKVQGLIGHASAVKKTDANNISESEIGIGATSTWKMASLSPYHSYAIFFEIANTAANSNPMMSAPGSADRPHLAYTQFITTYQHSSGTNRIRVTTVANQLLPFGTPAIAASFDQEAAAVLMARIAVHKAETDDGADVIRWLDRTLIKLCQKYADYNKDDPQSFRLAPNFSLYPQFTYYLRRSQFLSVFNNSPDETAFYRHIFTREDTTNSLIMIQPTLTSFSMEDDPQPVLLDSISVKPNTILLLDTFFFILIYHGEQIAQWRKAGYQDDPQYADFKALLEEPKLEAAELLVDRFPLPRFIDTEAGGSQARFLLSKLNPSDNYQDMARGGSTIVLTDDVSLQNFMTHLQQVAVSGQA
T1 sequence (P40482 whole entry, chain 2 of 2): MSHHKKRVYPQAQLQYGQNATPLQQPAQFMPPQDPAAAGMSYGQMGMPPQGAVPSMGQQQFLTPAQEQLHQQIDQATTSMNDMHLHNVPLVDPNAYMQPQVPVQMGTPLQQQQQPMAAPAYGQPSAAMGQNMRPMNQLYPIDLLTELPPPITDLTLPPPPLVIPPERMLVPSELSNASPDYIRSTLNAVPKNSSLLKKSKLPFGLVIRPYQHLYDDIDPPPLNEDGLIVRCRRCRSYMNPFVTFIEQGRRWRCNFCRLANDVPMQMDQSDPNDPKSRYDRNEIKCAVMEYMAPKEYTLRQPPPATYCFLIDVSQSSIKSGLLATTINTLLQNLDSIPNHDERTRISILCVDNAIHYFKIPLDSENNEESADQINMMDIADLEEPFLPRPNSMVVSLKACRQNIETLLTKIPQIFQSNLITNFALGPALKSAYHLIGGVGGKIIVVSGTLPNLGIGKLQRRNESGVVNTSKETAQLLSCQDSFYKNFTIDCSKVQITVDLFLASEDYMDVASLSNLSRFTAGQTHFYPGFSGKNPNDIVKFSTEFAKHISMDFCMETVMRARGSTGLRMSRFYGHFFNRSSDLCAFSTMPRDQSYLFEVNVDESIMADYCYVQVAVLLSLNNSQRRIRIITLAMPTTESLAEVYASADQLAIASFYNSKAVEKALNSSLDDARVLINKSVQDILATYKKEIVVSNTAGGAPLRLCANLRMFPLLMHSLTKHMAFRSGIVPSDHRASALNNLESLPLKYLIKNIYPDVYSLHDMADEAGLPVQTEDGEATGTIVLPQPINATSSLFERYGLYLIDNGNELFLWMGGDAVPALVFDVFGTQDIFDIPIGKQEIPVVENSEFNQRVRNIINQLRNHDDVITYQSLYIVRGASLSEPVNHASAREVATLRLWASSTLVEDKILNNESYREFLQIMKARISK

binding result (Sec13/31p complex)	further results	Binder
binds	–	B1
binds	–	B2
–	binding result (GST-Pef1p): binds	B3
–	binding result (Sec23/24p complex): binds	B4
